Like-named read-outs stand apart in the source and are kept apart here.
T1: HA-tagged TBX5 (murine Tbx5 isoform A) (mouse, UniProt P70326 1-518)
T1 sequence (looked up): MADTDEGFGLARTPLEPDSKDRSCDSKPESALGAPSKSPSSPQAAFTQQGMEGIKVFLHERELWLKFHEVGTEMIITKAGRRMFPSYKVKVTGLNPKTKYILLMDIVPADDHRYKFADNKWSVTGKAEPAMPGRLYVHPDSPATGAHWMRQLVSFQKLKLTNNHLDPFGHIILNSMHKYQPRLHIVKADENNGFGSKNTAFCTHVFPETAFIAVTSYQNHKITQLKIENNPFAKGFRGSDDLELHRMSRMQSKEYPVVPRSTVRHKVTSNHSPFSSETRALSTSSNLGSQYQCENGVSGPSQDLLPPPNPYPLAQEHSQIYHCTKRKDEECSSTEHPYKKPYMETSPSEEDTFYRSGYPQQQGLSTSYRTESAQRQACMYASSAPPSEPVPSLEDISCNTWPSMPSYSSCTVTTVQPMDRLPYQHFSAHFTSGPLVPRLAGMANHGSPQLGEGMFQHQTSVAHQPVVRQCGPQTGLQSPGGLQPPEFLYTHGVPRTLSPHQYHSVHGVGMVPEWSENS

B1: Flag-tagged HAND2 wild type (natural protein, mouse, UniProt Q61039 1-217, looked up)
chain: MSLVGGFPHHPVVHHEGYPFAAAAAAAAAAAASRCSHEENPYFHGWLIGHPEMSPPDYSMALSYSPEYASGAAGLDHSHYGGVPPGAGPPGLGGPRPVKRRGTANRKERRRTQSINSAFAELRECIPNVPADTKLSKIKTLRLATSYIAYLMDLLAKDDQNGEAEAFKAEIKKTDVKEEKRKKELNEILKSTVSSNDKKTKGRTGWPQHVWALELKQ

What was measured:
[1] = molecular target: HA-tagged TBX5 (murine Tbx5 isoform A) (mouse) (UniProt P70326); test: co-IP; nuclear extracts of separately transfected HEK293 cells mixed (100 ug each), anti-HA on Protein A/G Dynabeads, 2 h, alone or with DMSO; blot with anti-Flag, re-blot with anti-HA
[2] = molecular target: HA-tagged TBX5 (murine Tbx5 isoform A) (mouse) (UniProt P70326); test: as above; remark: listed apart in the source
[3] = molecular target: T1, HA-tagged TBX5 (murine Tbx5 isoform A); test: cell-based or functional assay

Row | Molecule | percent inhibition of the co-precipitation against wild-type HAND2 [1] | percent inhibition of the co-precipitation against wild-type HAND2 [2] | synergistic activation of the rat NPPA promoter coupled to luciferase in HEK293 cells co-transfected with TBX5 and HAND2 [3]
1 | Flag-tagged HAND2 p.G202V variant (from UniProt Q61039 1-217) (natural protein) | < 90% | < 80% | 
2 | B1 |  |  | ≤ 22 fold
